Test results as given in PMC8158037, “Staphylococcus aureus N-terminus formylated δ-toxin tends to form amyloid fibrils, while the deformylated δ-toxin tends to form functional oligomer complexes” (Virulence, 2021).
No end group written: not given here. *: point of attachment. For = O=C*

B1: PSMα2 (secreted by S. aureus MW2) (peptide)
chain: MGIIAGIIKFIKGLIEKFTGK
notes: also called phenol-soluble modulin α2
B3: PSMα1, synthetic peptide (peptide)
chain: For-MGIIAGIIKVIKSLIEQFTGK
notes: source: synthetic peptide (Sangon Biotech, purity > 95%)
B4: PSMα3 (secreted by S. aureus MW2) (peptide)
chain: MEFVAKLFKFFKDLLGKFLGNN
notes: also called phenol-soluble modulin α3
B5: PSMα3, synthetic peptide (peptide)
chain: For-MEFVAKLFKFFKDLLGKFLGNN
notes: as for B3
B6: PSMα1 (secreted by S. aureus MW2) (peptide)
chain: MGIIAGIIKVIKSLIEQFTGK
notes: also called phenol-soluble modulin α1
B8: PSMα2, synthetic peptide (peptide)
chain: For-MGIIAGIIKFIKGLIEKFTGK
notes: as for B3

How the values were obtained:
Assay in all cases: co-IP
Conditions in all cases: both partners purified
[1] = target: B6
[2] = target: T1, δ-toxin (secreted by S. aureus MW2 and its ΔPSMα strain) (Staphylococcus aureus MW2, N-terminal methionine formylated in part of the peptides (fδ-toxin) and deformylated in the rest (dfδ-toxin); Aggregate1 more than 50% fδ-toxin, Aggregate2 more than 85% dfδ-toxin)
T1 construct: also called PSMγ; δ-hemolysin

[3] = target: B4
[4] = target: B8
[5] = target: T2, N-terminus formylated δ-toxin, synthetic peptide (Staphylococcus aureus, N-formylmethionine at the N-terminus (fM))
T2 construct: also called fδ-toxin

[6] = target: T3, deformylated δ-toxin, synthetic peptide (Staphylococcus aureus)
T3 construct: also called dfδ-toxin

[7] = target: B5
[8] = target: B3
[9] = target: B1

Measured: binding result

B1
binds: [1] | [2] | [3]

B2: PSMα4, synthetic peptide (peptide)
chain: For-MAIVGTIIKIIKAIIDIFAK
notes: as for B3
binds: [4] | [5] | [6] | [7] | [8]

B3
binds: [4] | [5] | [6] | [7]

B4
binds: [9] | [1] | [2]

B5
binds: [4] | [5] | [6] | [8]

B6
binds: [9] | [2] | [3]

B7: PSMα4 (secreted by S. aureus MW2) (peptide)
chain: MAIVGTIIKIIKAIIDIFAK
notes: also called phenol-soluble modulin α4
binds: [9] | [1] | [2] | [3]

B8
binds: [5] | [6] | [7] | [8]
